T1: human calcitonin receptor (human, UniProt P30988 25-474)
T1 sequence (looked up): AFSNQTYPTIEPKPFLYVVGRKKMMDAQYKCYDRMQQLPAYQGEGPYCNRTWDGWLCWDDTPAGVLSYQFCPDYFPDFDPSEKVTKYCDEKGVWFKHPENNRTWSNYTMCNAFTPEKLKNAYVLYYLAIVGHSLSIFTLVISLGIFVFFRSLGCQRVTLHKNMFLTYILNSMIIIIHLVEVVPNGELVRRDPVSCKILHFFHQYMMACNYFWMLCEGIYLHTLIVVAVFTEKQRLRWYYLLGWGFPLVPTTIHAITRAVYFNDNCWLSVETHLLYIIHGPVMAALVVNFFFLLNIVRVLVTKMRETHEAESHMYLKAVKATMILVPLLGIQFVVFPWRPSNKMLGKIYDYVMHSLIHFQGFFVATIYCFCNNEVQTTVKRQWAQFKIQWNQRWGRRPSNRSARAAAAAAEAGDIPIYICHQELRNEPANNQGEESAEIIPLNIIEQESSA

T2: human amylin 3(a) receptor (human calcitonin receptor + RAMP-3) (human, UniProt P30988 25-474; O60896 24-148, limits assumed)
T2 sequence (looked up) 1: T1 sequence (looked up)
T2 sequence (looked up) 2: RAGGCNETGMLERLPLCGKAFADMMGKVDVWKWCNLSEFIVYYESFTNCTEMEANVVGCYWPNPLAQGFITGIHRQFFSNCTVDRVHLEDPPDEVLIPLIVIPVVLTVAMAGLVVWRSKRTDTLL

B1: N^α1N^α1-[(4S)-4-carboxy-4-(19-carboxynonadecanoylamino)butanoyl]-[Glu14,Arg17,Pro21,Pro27,Glu35]-h-amylin (peptide)
peptide: {C20 diacid-γGlu}-KCNTATCATQRLAEFLRHSSPNFGAIPSSTNVGSETY-NH2
modifications: disulfide 2-7
SMILES: CC[C@H](C)[C@H](NC(=O)[C@H](C)NC(=O)CNC(=O)[C@H](Cc1ccccc1)NC(=O)[C@H](CC(N)=O)NC(=O)[C@@H]1CCCN1C(=O)[C@H](CO)NC(=O)[C@H](CO)NC(=O)[C@H](Cc1c[nH]cn1)NC(=O)[C@H](CCCNC(=N)N)NC(=O)[C@H](CC(C)C)NC(=O)[C@H](Cc1ccccc1)NC(=O)[C@H](CCC(=O)O)NC(=O)[C@H](C)NC(=O)[C@H](CC(C)C)NC(=O)[C@H](CCCNC(=N)N)NC(=O)[C@H](CCC(N)=O)NC(=O)[C@@H](NC(=O)[C@H](C)NC(=O)[C@@H]1CSSC[C@H](NC(=O)[C@H](CCCCN)NC(=O)CC[C@H](NC(=O)CCCCCCCCCCCCCCCCCCC(=O)O)C(=O)O)C(=O)N[C@@H](CC(N)=O)C(=O)N[C@@H]([C@@H](C)O)C(=O)N[C@@H](C)C(=O)N[C@@H]([C@@H](C)O)C(=O)N1)[C@@H](C)O)C(=O)N1CCC[C@H]1C(=O)N[C@@H](CO)C(=O)N[C@@H](CO)C(=O)N[C@H](C(=O)N[C@@H](CC(N)=O)C(=O)N[C@H](C(=O)NCC(=O)N[C@@H](CO)C(=O)N[C@@H](CCC(=O)O)C(=O)N[C@H](C(=O)N[C@@H](Cc1ccc(O)cc1)C(N)=O)[C@@H](C)O)C(C)C)[C@@H](C)O
notes: also called compound 22
B2: N^ε1-[(4S)-4-carboxy-4-(19-carboxynonadecanoylamino)butanoyl]-[His14,Arg17,Pro21,Pro27,Pro34,Pro37]-h-amylin (peptide)
peptide: K([γGlu-C20 diacid])CNTATCATQRLAHFLRHSSPNFGAIPSSTNVGPNTP-NH2
modifications: disulfide 2-7; N-terminus assumed
SMILES: CC[C@H](C)[C@H](NC(=O)[C@H](C)NC(=O)CNC(=O)[C@H](Cc1ccccc1)NC(=O)[C@H](CC(N)=O)NC(=O)[C@@H]1CCCN1C(=O)[C@H](CO)NC(=O)[C@H](CO)NC(=O)[C@H](Cc1c[nH]cn1)NC(=O)[C@H](CCCNC(=N)N)NC(=O)[C@H](CC(C)C)NC(=O)[C@H](Cc1ccccc1)NC(=O)[C@H](Cc1c[nH]cn1)NC(=O)[C@H](C)NC(=O)[C@H](CC(C)C)NC(=O)[C@H](CCCNC(=N)N)NC(=O)[C@H](CCC(N)=O)NC(=O)[C@@H](NC(=O)[C@H](C)NC(=O)[C@@H]1CSSC[C@H](NC(=O)[C@@H](N)CCCCNC(=O)CC[C@H](NC(=O)CCCCCCCCCCCCCCCCCCC(=O)O)C(=O)O)C(=O)N[C@@H](CC(N)=O)C(=O)N[C@@H]([C@@H](C)O)C(=O)N[C@@H](C)C(=O)N[C@@H]([C@@H](C)O)C(=O)N1)[C@@H](C)O)C(=O)N1CCC[C@H]1C(=O)N[C@@H](CO)C(=O)N[C@@H](CO)C(=O)N[C@H](C(=O)N[C@@H](CC(N)=O)C(=O)N[C@H](C(=O)NCC(=O)N1CCC[C@H]1C(=O)N[C@@H](CC(N)=O)C(=O)N[C@H](C(=O)N1CCC[C@H]1C(N)=O)[C@@H](C)O)C(C)C)[C@@H](C)O
B3: N^ε1-[(4S)-4-carboxy-4-(19-carboxynonadecanoylamino)butanoyl]-[Asp14,Arg17,Pro21,Pro27,Pro34,Glu35]-h-amylin (peptide)
peptide: K([γGlu-C20 diacid])CNTATCATQRLADFLRHSSPNFGAIPSSTNVGPETY-NH2
modifications: disulfide 2-7; N-terminus assumed
SMILES: CC[C@H](C)[C@H](NC(=O)[C@H](C)NC(=O)CNC(=O)[C@H](Cc1ccccc1)NC(=O)[C@H](CC(N)=O)NC(=O)[C@@H]1CCCN1C(=O)[C@H](CO)NC(=O)[C@H](CO)NC(=O)[C@H](Cc1c[nH]cn1)NC(=O)[C@H](CCCNC(=N)N)NC(=O)[C@H](CC(C)C)NC(=O)[C@H](Cc1ccccc1)NC(=O)[C@H](CC(=O)O)NC(=O)[C@H](C)NC(=O)[C@H](CC(C)C)NC(=O)[C@H](CCCNC(=N)N)NC(=O)[C@H](CCC(N)=O)NC(=O)[C@@H](NC(=O)[C@H](C)NC(=O)[C@@H]1CSSC[C@H](NC(=O)[C@@H](N)CCCCNC(=O)CC[C@H](NC(=O)CCCCCCCCCCCCCCCCCCC(=O)O)C(=O)O)C(=O)N[C@@H](CC(N)=O)C(=O)N[C@@H]([C@@H](C)O)C(=O)N[C@@H](C)C(=O)N[C@@H]([C@@H](C)O)C(=O)N1)[C@@H](C)O)C(=O)N1CCC[C@H]1C(=O)N[C@@H](CO)C(=O)N[C@@H](CO)C(=O)N[C@H](C(=O)N[C@@H](CC(N)=O)C(=O)N[C@H](C(=O)NCC(=O)N1CCC[C@H]1C(=O)N[C@@H](CCC(=O)O)C(=O)N[C@H](C(=O)N[C@@H](Cc1ccc(O)cc1)C(N)=O)[C@@H](C)O)C(C)C)[C@@H](C)O
B4: N^ε1-[(4S)-4-carboxy-4-(19-carboxynonadecanoylamino)butanoyl]-[Ala14,Arg17,Pro21,Pro27,Pro34]-h-amylin (peptide)
peptide: K([γGlu-C20 diacid])CNTATCATQRLAAFLRHSSPNFGAIPSSTNVGPNTY-NH2
modifications: disulfide 2-7; N-terminus assumed
SMILES: CC[C@H](C)[C@H](NC(=O)[C@H](C)NC(=O)CNC(=O)[C@H](Cc1ccccc1)NC(=O)[C@H](CC(N)=O)NC(=O)[C@@H]1CCCN1C(=O)[C@H](CO)NC(=O)[C@H](CO)NC(=O)[C@H](Cc1c[nH]cn1)NC(=O)[C@H](CCCNC(=N)N)NC(=O)[C@H](CC(C)C)NC(=O)[C@H](Cc1ccccc1)NC(=O)[C@H](C)NC(=O)[C@H](C)NC(=O)[C@H](CC(C)C)NC(=O)[C@H](CCCNC(=N)N)NC(=O)[C@H](CCC(N)=O)NC(=O)[C@@H](NC(=O)[C@H](C)NC(=O)[C@@H]1CSSC[C@H](NC(=O)[C@@H](N)CCCCNC(=O)CC[C@H](NC(=O)CCCCCCCCCCCCCCCCCCC(=O)O)C(=O)O)C(=O)N[C@@H](CC(N)=O)C(=O)N[C@@H]([C@@H](C)O)C(=O)N[C@@H](C)C(=O)N[C@@H]([C@@H](C)O)C(=O)N1)[C@@H](C)O)C(=O)N1CCC[C@H]1C(=O)N[C@@H](CO)C(=O)N[C@@H](CO)C(=O)N[C@H](C(=O)N[C@@H](CC(N)=O)C(=O)N[C@H](C(=O)NCC(=O)N1CCC[C@H]1C(=O)N[C@@H](CC(N)=O)C(=O)N[C@H](C(=O)N[C@@H](Cc1ccc(O)cc1)C(N)=O)[C@@H](C)O)C(C)C)[C@@H](C)O
notes: also called compound 94
B5: N^ε1-[(4S)-4-carboxy-4-(19-carboxynonadecanoylamino)butanoyl]-[Glu14,Arg17,Pro21,Pro27,Pro34,Pro37]-h-amylin (peptide)
peptide: K([γGlu-C20 diacid])CNTATCATQRLAEFLRHSSPNFGAIPSSTNVGPNTP-NH2
modifications: disulfide 2-7; N-terminus assumed
SMILES: CC[C@H](C)[C@H](NC(=O)[C@H](C)NC(=O)CNC(=O)[C@H](Cc1ccccc1)NC(=O)[C@H](CC(N)=O)NC(=O)[C@@H]1CCCN1C(=O)[C@H](CO)NC(=O)[C@H](CO)NC(=O)[C@H](Cc1c[nH]cn1)NC(=O)[C@H](CCCNC(=N)N)NC(=O)[C@H](CC(C)C)NC(=O)[C@H](Cc1ccccc1)NC(=O)[C@H](CCC(=O)O)NC(=O)[C@H](C)NC(=O)[C@H](CC(C)C)NC(=O)[C@H](CCCNC(=N)N)NC(=O)[C@H](CCC(N)=O)NC(=O)[C@@H](NC(=O)[C@H](C)NC(=O)[C@@H]1CSSC[C@H](NC(=O)[C@@H](N)CCCCNC(=O)CC[C@H](NC(=O)CCCCCCCCCCCCCCCCCCC(=O)O)C(=O)O)C(=O)N[C@@H](CC(N)=O)C(=O)N[C@@H]([C@@H](C)O)C(=O)N[C@@H](C)C(=O)N[C@@H]([C@@H](C)O)C(=O)N1)[C@@H](C)O)C(=O)N1CCC[C@H]1C(=O)N[C@@H](CO)C(=O)N[C@@H](CO)C(=O)N[C@H](C(=O)N[C@@H](CC(N)=O)C(=O)N[C@H](C(=O)NCC(=O)N1CCC[C@H]1C(=O)N[C@@H](CC(N)=O)C(=O)N[C@H](C(=O)N1CCC[C@H]1C(N)=O)[C@@H](C)O)C(C)C)[C@@H](C)O
B6: N^ε1-[(4S)-4-carboxy-4-(19-carboxynonadecanoylamino)butanoyl]-[His14,Arg17,Pro21,Pro27,Pro31,Pro34]-h-amylin (peptide)
peptide: K([γGlu-C20 diacid])CNTATCATQRLAHFLRHSSPNFGAIPSSTPVGPNTY-NH2
modifications: disulfide 2-7; N-terminus assumed
SMILES: CC[C@H](C)[C@H](NC(=O)[C@H](C)NC(=O)CNC(=O)[C@H](Cc1ccccc1)NC(=O)[C@H](CC(N)=O)NC(=O)[C@@H]1CCCN1C(=O)[C@H](CO)NC(=O)[C@H](CO)NC(=O)[C@H](Cc1c[nH]cn1)NC(=O)[C@H](CCCNC(=N)N)NC(=O)[C@H](CC(C)C)NC(=O)[C@H](Cc1ccccc1)NC(=O)[C@H](Cc1c[nH]cn1)NC(=O)[C@H](C)NC(=O)[C@H](CC(C)C)NC(=O)[C@H](CCCNC(=N)N)NC(=O)[C@H](CCC(N)=O)NC(=O)[C@@H](NC(=O)[C@H](C)NC(=O)[C@@H]1CSSC[C@H](NC(=O)[C@@H](N)CCCCNC(=O)CC[C@H](NC(=O)CCCCCCCCCCCCCCCCCCC(=O)O)C(=O)O)C(=O)N[C@@H](CC(N)=O)C(=O)N[C@@H]([C@@H](C)O)C(=O)N[C@@H](C)C(=O)N[C@@H]([C@@H](C)O)C(=O)N1)[C@@H](C)O)C(=O)N1CCC[C@H]1C(=O)N[C@@H](CO)C(=O)N[C@@H](CO)C(=O)N[C@H](C(=O)N1CCC[C@H]1C(=O)N[C@H](C(=O)NCC(=O)N1CCC[C@H]1C(=O)N[C@@H](CC(N)=O)C(=O)N[C@H](C(=O)N[C@@H](Cc1ccc(O)cc1)C(N)=O)[C@@H](C)O)C(C)C)[C@@H](C)O

Numbered stars: 1 amine (or outer) side, 2 acyl side, 3 side chain; on linkers, the order of the positions; unused ones are H or OH. Bridge positions count the residues as written; N and C are the ends. Side chains are listed from the residue outwards. Ends that are not written are not given here. * marks the point of attachment. C20 diacid = O=C(O)CCCCCCCCCCCCCCCCCCC(=O)*; γGlu = O=C(O)[C@H](CCC(=O)[*:2])N[*:1]

The target of one experiment is T1, human calcitonin receptor. The experiment is described as follows: cell-based or functional assay.
Consider B1, for which the “Ratio hCT/hAmylin funct.” value was found to be 3.8.
B2: the “Ratio hCT/hAmylin funct.” value amounted to 0.8.
For B3, the “Ratio hCT/hAmylin funct.” value amounted to 3.9 and the “hCTR funct. EC50 (pM)” value was 1120 pM.
In the case of B4, the “Ratio hCT/hAmylin funct.” value came to 4.5.
As to B5, the “Ratio hCT/hAmylin funct.” value amounted to 0.9.
For the molecule B6, the “Ratio hCT/hAmylin funct.” value was 4.9.

A further experiment concerns the target T2, human amylin 3(a) receptor (human …). As to the kind of experiment: cell-based or functional assay.
On to B1, for which the “hAmylin-R funct. EC50 (pM)” value worked out at 270 pM.
Take B2: the “hAmylin-R funct. EC50 (pM)” value is 52 pM.
As to B3, the “hAmylin-R funct. EC50 (pM)” value was determined as 288 pM.
B4: the “hAmylin-R funct. EC50 (pM)” value worked out at 70 pM.
Consider B5, for which the “hAmylin-R funct. EC50 (pM)” value amounted to 105 pM.
For B6, the “hAmylin-R funct. EC50 (pM)” value is 71 pM.

Values taken from US20140087995A1 (published 2014).
